# ± gives the standard deviation of the averaged measurements.
# B1: library; a variant is named by its letters at N, in order (parent)
# chain: AATGTTGTTGATGCAACCATAAAGTGATATTTAATAATTATTTATAATCAGCAACTTAACCACAAAACAACCATATATTGATATNTCACAAAACAACCATAANTTGATATTTTTGTGAATCGAGTATTTCAGCAAAACTACTGCAGTAAGAA
# Experiments:
# [1] = variants of: B1; assay: relative integration efficiency (T-LR orientation) vs wild-type transposon end (log2 (normalized fold change)); transposon end mutated: left end; higher = more efficient transposition; settings: with VchCAST RNA-guided transposition machinery (E. coli BL21(DE3) host, lacZ target)
# Outline: (§1)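 In E. coli BL21(DE3), a T7-driven effector plasmid was paired with a pUC57 mini-transposon donor containing 1549 left-end or 1849 right-end barcoded transposon variants. Cells grew on plates with 0.1 mM IPTG at 37°C for 18 h. Relative integration efficiency was derived from Illumina reads of genomic integration junctions against input plasmids, as a log-transformed output/input barcode fold change normalised to reference barcodes.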
# [2] = variants of: B1; assay: relative integration efficiency (T-RL orientation) vs wild-type transposon end (log2 (normalized fold change)); transposon end mutated: left end; higher = more efficient transposition; settings: with VchCAST RNA-guided transposition machinery (E. coli BL21(DE3) host, lacZ target)
# Outline: as §1
Variant,relative integration efficiency (log2) [1],relative integration efficiency (log2) [2]
CG A93C,-0.0609 ± 0.5,-0.288 ± 0.19
CG A93T,-0.975 ± 0.63,-0.479 ± 0.33
CG A93G,-0.13 ± 0.37,-0.207 ± 0.083
CG A96T C97G,-0.64 ± 0.43,-0.723 ± 0.29
CG C18A A19C T20G A21C,-2.8 ± 0.18,-3.18 ± 0.65
CG C14A C68A C94A,-1.29 ± 1.1,-0.864 ± 0.51
CG A109T T110A T111A T112A,-1.2 ± 0.55,-1.22 ± 0.46
CG C14A A15C,-0.0841 ± 0.4,-0.0319 ± 0.34
CG C14G A15T,-1.58 ± 0.72,-0.642 ± 0.37
CG A99C T100G,-1.66 ± 1.1,-1.87 ± 0.76
CG C49G A50T,-0.94 ± 0.92,-0.509 ± 0.62
CG A92C A93C C94A A95C,-1.74 ± 0.33,-1.09 ± 0.75
CG A96C C97A,-2 ± 1,-1.33 ± 0.57
CG A91T A92T A93T C94G,-1.3 ± 1.2,-1.4 ± 0.69
CG A119C,0.11 ± 0.18,-0.107 ± 0.1
CG A119G,0.273 ± 0.044,0.0234 ± 0.071
CG A119T,0.893 ± 0.42,0.51 ± 0.29
CG C17G C18G,-0.437 ± 0.49,-0.313 ± 0.33
CG C14G,-0.527 ± 0.35,-0.0895 ± 0.33
CG C14T,0.167 ± 0.37,-0.295 ± 0.18
CG C14A,-0.739 ± 0.55,-0.546 ± 0.32
CG A99C,-1.01 ± 0.78,-1.23 ± 0.65
CG A99T,-1.41 ± 0.62,-0.877 ± 0.54
CG A99G,-0.0966 ± 0.58,-0.278 ± 0.18

Variant,relative integration efficiency (log2) [1],relative integration efficiency (log2) [2]
CG A91T A92T,0.705 ± 0.2,0.108 ± 0.066
CG A109C,0.0163 ± 0.22,-0.193 ± 0.42
CG A109T,0.223 ± 0.47,0.209 ± 0.39
CG A109G,-0.737 ± 0.88,-0.662 ± 0.16
CG C49A,-0.195 ± 0.69,0.178 ± 0.24
CG C49G,0.811 ± 0.52,0.127 ± 0.33
CG C49T,-0.164 ± 0.35,0.0612 ± 0.15
CG A107T T108A,-0.991 ± 0.38,-0.981 ± 0.55
CG C49A A50C,-0.934 ± 0.45,-0.598 ± 0.47
CG C18G A19T,-1.25 ± 0.29,-1.13 ± 0.5
CG C18G A19T T20A A21T,-2.57 ± 1.4,-1.37 ± 0.56
CG A119C T120G C121A G122T A123C G124T T125G,-0.964 ± 0.063,-0.304 ± 0.022
CG C52T,0.154 ± 0.19,0.201 ± 0.14
CG C52A,0.484 ± 0.55,0.279 ± 0.017
CG C52G,0.484 ± 0.31,-0.00219 ± 0.15
CG C17T,-0.0678 ± 0.41,-0.0235 ± 0.16
CG C17A,0.131 ± 0.49,0.0401 ± 0.23
CG C17G,0.155 ± 0.37,-0.344 ± 0.25
CG A96C C97A C98A A99C,-1.79 ± 0.72,-2.25 ± 0.85
CG A95C A96C C97A C98A,-1.32 ± 1.8,-2.14 ± 0.8
CG A92T A93T C94G A95T,-3.64 ± 1.2,-1.61 ± 0.83
CG A109C T110G,-1.25 ± 1.3,-0.936 ± 0.53
CG C49G G51T C52G C55T A58T A59T C60A C61T A62G,-4.34 ± 2.5,-4.9 ± 0.68
CG C52A A53C,0.0739 ± 0.63,-0.177 ± 0.1

Variant,relative integration efficiency (log2) [1],relative integration efficiency (log2) [2]
CG A123C G124T T125G,-0.277 ± 0.038,-0.171 ± 0.067
CG A107C T108G A109C T110G,-2.3 ± 1.2,-1.64 ± 0.79
CG A93T C94G,-1.04 ± 0.89,-1.35 ± 0.65
CG C18G,0.0813 ± 0.047,0.259 ± 0.083
CG C18A,0.107 ± 0.17,-0.181 ± 0.016
CG C18T,0.181 ± 0.51,0.16 ± 0.08
CG C49G A50T G51C C52G,-1.24 ± 0.76,-1.58 ± 0.9
CG C17A C71A C97A,-0.871 ± 0.35,-1.21 ± 0.59
CG A119T T120A,-0.0736 ± 0.29,-0.226 ± 0.056
CG A92C A93C,-0.222 ± 0.86,-0.331 ± 0.24
CG A92T A93T,-0.29 ± 0.86,-0.445 ± 0.23
CG A99T T100A,-1.17 ± 0.8,-1.19 ± 0.47
CG C52G A53T,0.253 ± 0.28,0.138 ± 0.048
CG A107T T108A A109T T110A,-0.765 ± 0.3,-0.783 ± 0.46
CG C18G C72G C98G,-0.915 ± 0.23,-0.987 ± 0.56
CG C18A A19C,-1.46 ± 0.83,-1.68 ± 0.79
CG C17A C18A,-1.03 ± 1,-1.15 ± 0.71
CG A118T A119T,0.266 ± 0.26,-0.158 ± 0.014
CG A101C A102C,-1.64 ± 0.96,-1.55 ± 0.55
CG A99T T100A A101T A102T,-0.997 ± 0.78,-1.06 ± 0.48
CG A93C C94A A95C A96C,-0.979 ± 1.9,-1.09 ± 0.56
CG A118C A119C T120G C121A G122T A123C G124T T125G,-0.0272 ± 0.24,0.0769 ± 0.16
CG C49A A50T C52T T56C T57A C60A C61G A62T C63A,-3.63 ± 0.43,-5.28 ± 0.94
CG C14G C68G C94G,-2.2 ± 0.43,-2.49 ± 1.3

Variant,relative integration efficiency (log2) [1],relative integration efficiency (log2) [2]
CG A119C T120G,-0.429 ± 1.1,-0.131 ± 0.072
CG A109C T110G T111G T112G,-1.67 ± 0.36,-1.4 ± 0.41
CG A107C T108G,-0.997 ± 1.2,-1.01 ± 0.6
CG A118G,-0.0561 ± 0.73,-0.144 ± 0.097
CG A118C,0.243 ± 0.42,-0.0886 ± 0.026
CG A118T,-0.185 ± 0.24,-0.0188 ± 0.11
CG A107C,-0.569 ± 1.1,-0.425 ± 0.35
CG A107T,-0.794 ± 0.79,-0.795 ± 0.44
CG A107G,-0.592 ± 0.8,-0.554 ± 0.26
CG A101T A102T,-0.713 ± 0.59,-0.513 ± 0.27
CG A95C,-0.179 ± 0.35,-0.318 ± 0.063
CG A95G,-1.23 ± 0.42,-0.845 ± 0.39
CG A95T,-0.598 ± 0.89,-0.00814 ± 0.24
CG A95T A96T C97G C98G,-1.79 ± 0.29,-1.94 ± 0.81
CG A102C,-1.3 ± 0.53,-1.12 ± 0.46
CG A102G,-1.58 ± 1.1,-0.825 ± 0.55
CG A102T,0.323 ± 0.19,-0.123 ± 0.24
CG A93C C94A,-0.406 ± 0.83,-0.522 ± 0.41
CG C52A A53C A54C C55A,0.277 ± 0.23,0.0708 ± 0.21
CG A109T T110A,-0.674 ± 0.43,-0.271 ± 0.27
CG A95T A96T,-0.891 ± 0.57,-0.379 ± 0.28
CG C14G A15T A16T C17G,-1.31 ± 0.38,-1.26 ± 0.49
CG A99C T100G A101C A102C,-1.07 ± 1.4,-1.82 ± 0.89
CG A96T,-0.52 ± 0.14,-0.314 ± 0.13

Variant,relative integration efficiency (log2) [1],relative integration efficiency (log2) [2]
CG A96C,0.848 ± 0.0087,0.7239 ± 0.0024
CG A96G,-1.06 ± 0.18,-0.704 ± 0.32
CG C18A C72A C98A,-1.73 ± 0.24,-1.91 ± 0.81
CG A118C A119C,0.178 ± 0.4,-0.00591 ± 0.078
CG C49A A50C G51T C52A,-1.02 ± 1.1,-0.71 ± 0.6
CG A96T C97G C98G A99T,-2 ± 1.1,-2.05 ± 0.9
CG C17A C18A A19C T20G,-3.01 ± 0.42,-2.69 ± 0.85
CG C52G A53T A54T C55G,0.133 ± 0.24,0.0283 ± 0.2
CG A101T,-0.501 ± 0.29,-0.599 ± 0.23
CG A101G,-1.62 ± 1.1,-1.22 ± 0.47
CG A101C,-1.67 ± 0.92,-1.29 ± 0.49
CG A92C,-0.321 ± 0.19,-0.313 ± 0.19
CG A92G,-0.495 ± 0.53,-0.563 ± 0.18
CG A92T,0.606 ± 0.37,-0.0452 ± 0.064
CG C17G C71G C97G,-1.57 ± 1,-1.28 ± 0.76
CG C14A A15C A16C C17A,-1.81 ± 1,-1.38 ± 0.6
CG C17G C18G A19T T20A,-1.28 ± 0.64,-1.56 ± 0.94
CG A93T C94G A95T A96T,-2.14 ± 0.41,-1.82 ± 0.58
CG A95C A96C,-0.693 ± 0.86,-0.385 ± 0.4
CG C55A,-0.0412 ± 0.7,0.0708 ± 0.088

# Reference: the supplement of paper PMC10201428
